Source: PMC12255766 (2025)

B1: Venus::LAT-1 (C. elegans latrophilin homolog LAT-1 fused to Venus) [C. elegans] / Nluc::LAG-2 (C. elegans DSL protein/Notch ligand LAG-2 fused to Nanoluciferase) [C. elegans] (parent complex)
chain 1: SNKPTTDESGTISHTICDGEAAELSCPAGKVISIVLGNYGRFSVAVCLPDNDIVPSNINCQNHKTKSILEKKCNGDSMCYFTVDKKTFTEDPCPNTPKYLEVKYNCVVPATTTTTTTTTSTTTTDSSLIVDEEEEAQKDALNSDVIKPVKKKEDVFCSATNRRGVNWQNTKSGTTSSAPCPEGSSGKQLWACTEEGQWLTEFPNSAGCESNWISSRNSVLSGVISSEDVSGLPEFLRNLGSETRRPMVGGDLPKVLHLLEKTVNVIAEESWAYQHLPLSNKGAVEVMNYMLRNQEIWGSWDVTKRKEFASRFILAAEKAMVASAKGMMTSAESNVIVQPAITVEISHKIKMSSQPTDYILFPSAALWNGQNVDNVNIPRDAILKINKDETQVFFSSFDNLGAQMTPSDVTVAIAGTDQTEVRKRRVVSRIVGASLIENGKERRVENLTQPVRITFYHKESSVRHLSNPTCVWWNHHELKWKPSGCKLSYHNKTMTSCDCTHLTHFAVLMDVRGHDLNEIDQTLLTLLTYVGCIISIICLLLTFFAYLIFSRNGGDRVFIHENLCLSLAIAEITFLAGITRTEDSLQCGIIAVALMYMFLSALTWMLLEGYHIHRMLTEVFPSDPRRFTYLLVGYIPPAIITLVAYLYNSDGFGTPDHCWLSTQNNFIWFFAGPACFIFCANSLVLVKTLCTVYQHTSGGYLPCRHDVDSGRSIRNWVKGSLALASLLGVTWIFGLFWVEDSRSIVMAYVFTISNSLQGLFIFLFHVVFAEKMRKDVGHWMYRRGCGGSSNSSPNHKRHNVQRDLMSPGVNSSTGSDFLYNTNDKYLTNSDTTNRLVYNGIMNHPNQMSVYQQHPHHQIYEQQPGTYDYATIAYGDMMPGHRVAAPPAYQRLAVAEGRYGSQHQLYQGWHHRPPPEFSPPPPPLSTGPPNSRHYGTGSSGRRPPSSKMSDDSAYSDGSSSMLTTEVTPQGQTVLRIDLNKPSMYCQDL
chain 2: QARVEVHQEFISSKRVSVRFEIVTESHSPNRPVTFDLFPRGPKTNIILLDTFNPVFNFSIQLVQPFTGQPLGDRIYRKVQFSGTNQPWINDTFTTTSGISLSVATEVTCARNYFGNRCENFCDAHLAKAARKRCDAMGRLRCDIGWMGPHCGQAVDPRKCSCENDGICVSSMIHPSQPNQTSSNEQLICECTNGFTGTRCEIFGFNQFQLTAPRPDACSVKDACLNGAKCFPNGPKVFCSCAVGFIGEFCEISLTTTTPTTVEITVSTSGYSSAVYITVALFVIFSIIIGCFKYKFKPMRQQALARGQVPEPYKMPETKSMLIDPEASEAQKKVFTIEGSVQKIDEEVRYTSAPRKYESNNEYAVIQKSTPPPPSLSPPSIPACHYV

Variants of: B1
Assay: NanoBRET; HEK293 cells; Venus::LAT-1 acceptor, Nluc::LAG-2 donor; parent: 0.0042; read off a plot

Row | Variant | screen value
1 | chain 1 Q354A, chain 1 P355A, chain 1 D357A, chain 1 Y358A, chain 1 L360A, chain 1 L366A, chain 1 W367A | ~0.0025
2 | chain 1 L36A, chain 1 F42A, chain 1 D50A, chain 1 D52A, chain 1 V54A | ~0.0053
